This test addresses HLA-A*02:01 (Homo sapiens, UniProt P04439, D140Y/D185E/D98H/E176V/E277Q/G131W/G231S/I119V/I121R/I166T/I218V/L300P/L318F/N151K/N90K/P208A/P217A/Q86G/Q94H/R138H/R169H/T345S). The test can be described thus: MHC binding assay (UV-ligand exchange, ELISA of stabilized MHC complexes). Conditions: MHC class I binding score; binding to HLA-A*02:01 ranged by peptide exchange yield (UV-ligand exchange, ELISA). Put shortly: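 Binding scored as exchange yield, detected via β2m of stabilized complexes in an HRP/TMB ELISA read at 450 nm after streptavidin capture of 100-fold diluted monomers for 1 h at 37 °C. Complexes came from UV irradiation cleaving a photolabile peptide, exchanged for the candidate.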
On to “300 (ALLGQTFSL; listed as Homo sapiens) [compound 300]”, for which the Peptide exchange result is on record as “″+++″ (≥50% = +++)”. With “301 (FLVEDLVDSL; listed as Homo sapiens) [compound 301]”, the Peptide exchange entry was “″+++″ (≥50% = +++)”. Then “302 (ALLQEGEVYSA; listed as Homo sapiens) [compound 302]”, with “″+++″ (≥50% = +++)”. Regarding “303 (AILPQLFMV; listed as Homo sapiens) [compound 303]”, the Peptide exchange entry is on record as “″++++″ (≥75% = ++++)”. As for “304 (MTLGQIYYL; listed as Homo sapiens) [compound 304]”, the Peptide exchange entry is recorded as “″+++″ (≥50% = +++)”. Then “305 (SIANFSEFYV; listed as Homo sapiens) [compound 305]”, with “″++++″ (≥75% = ++++)”; and “306 (ALVNVQIPL; listed as Homo sapiens) [compound 306]”, with “″+++″ (≥50% = +++)”; and “307 (ALPVSLPQI; listed as Homo sapiens) [compound 307]”, with “″+++″ (≥50% = +++)”. Turning to “308 (SQYSGQLHEV; listed as Homo sapiens) [compound 308]”, the Peptide exchange result is “″+++″ (≥50% = +++)”. Take “309 (GLFDGVPTTA; listed as Homo sapiens) [compound 309]”: the Peptide exchange entry is recorded as “″+++″ (≥50% = +++)”.

Turning to “310 (FLVDTPLARA; listed as Homo sapiens) [compound 310]”, the Peptide exchange entry was “″++++″ (≥75% = ++++)”. For “311 (RLYTGMHTV; listed as Homo sapiens) [compound 311]”, the Peptide exchange result is on record as “″+++″ (≥50% = +++)”. Then “312 (IISDLTIAL; listed as Homo sapiens) [compound 312]”, with “″+++″ (≥50% = +++)”; and “313 (VLFDDELLMV; listed as Homo sapiens) [compound 313]”, with “″+++″ (≥50% = +++)”.

As to “314 (ALIAEGIALV; listed as Homo sapiens) [compound 314]”, the Peptide exchange entry was “″+++″ (≥50% = +++)”. “315 (YLQDVVEQA; listed as Homo sapiens) [compound 315]”: the Peptide exchange result is “″+++″ (≥50% = +++)”. As for “316 (ILLERLWYV; listed as Homo sapiens) [compound 316]”, the Peptide exchange result is reported as “″+++″ (≥50% = +++)”. Then “317 (SLAALVVHV; listed as Homo sapiens) [compound 317]”, with “″+++″ (≥50% = +++)”.

Take “318 (GLINTGVLSV; listed as Homo sapiens) [compound 318]”: the Peptide exchange result is “″++″ (≥20% = ++)”. On to “320 (KMFEFVEPLL; listed as Homo sapiens) [compound 320]”, for which the Peptide exchange result is reported as “″++++″ (≥75% = ++++)”. Then “321 (GLFEDVTQPGILL; listed as Homo sapiens) [compound 321]”, with “″++++″ (≥75% = ++++)”; and “322 (TLMTSLPAL; listed as Homo sapiens) [compound 322]”, with “″+++″ (≥50% = +++)”; and “324 (FLYDEIEAEV; listed as Homo sapiens) [compound 324]”, with “″+++″ (≥50% = +++)”.

On to “325 (FIMPATVADATAV; listed as Homo sapiens) [compound 325]”, for which the Peptide exchange entry is given as “″+++″ (≥50% = +++)”. Then “326 (FLPEALDFV; listed as Homo sapiens) [compound 326]”, with “″+++″ (≥50% = +++)”; and “327 (GLAPFTEGISFV; listed as Homo sapiens) [compound 327]”, with “″+++″ (≥50% = +++)”; and “328 (ALNDQVFEI; listed as Homo sapiens) [compound 328]”, with “″+++″ (≥50% = +++)”. Then “329 (FLVTLNNVEV; listed as Homo sapiens) [compound 329]”, with “″++++″ (≥75% = ++++)”; and “330 (QLALKVEGV; listed as Homo sapiens) [compound 330]”, with “″+++″ (≥50% = +++)”; and “331 (KVDTVWVNV; listed as Homo sapiens) [compound 331]”, with “″+++″ (≥50% = +++)”. Then “332 (YLISELEAA; listed as Homo sapiens) [compound 332]”, with “″+++″ (≥50% = +++)”; and “333 (FLPDANSSV; listed as Homo sapiens) [compound 333]”, with “″++″ (≥20% = ++)”.

Take “334 (TLTKVLVAL; listed as Homo sapiens) [compound 334]”: the Peptide exchange entry is “″+++″ (≥50% = +++)”. For “335 (YSLSSVVTV; listed as Homo sapiens) [compound 335]”, the Peptide exchange entry is “″+++″ (≥50% = +++)”. Then “336 (ILLTAIVQV; listed as Homo sapiens) [compound 336]”, with “″+++″ (≥50% = +++)”; and “337 (HLLSELEAAPYL; listed as Homo sapiens) [compound 337]”, with “″++++″ (≥75% = ++++)”. Regarding “339 (GLWEIENNPTVKA; listed as Homo sapiens) [compound 339]”, the Peptide exchange entry is recorded as “″++++″ (≥75% = ++++)”.

For “340 (ALLSMTFPL; listed as Homo sapiens) [compound 340]”, the Peptide exchange entry is given as “″++++″ (≥75% = ++++)”. For the substance “341 (SQIALNEKLVNL; listed as Homo sapiens) [compound 341]”, the Peptide exchange result is given as “″+++″ (≥50% = +++)”. On to “342 (HIYDKVMTV; listed as Homo sapiens) [compound 342]”, for which the Peptide exchange result is reported as “″+++″ (≥50% = +++)”. Then “343 (SLLEVNEESTV; listed as Homo sapiens) [compound 343]”, with “″+++″ (≥50% = +++)”; and “344 (YLQDQHLLLTV; listed as Homo sapiens) [compound 344]”, with “″+++″ (≥50% = +++)”. Then “345 (VIWKALIHL; listed as Homo sapiens) [compound 345]”, with “″+++″ (≥50% = +++)”; and “346 (LLDSKVPSV; listed as Homo sapiens) [compound 346]”, with “″+++″ (≥50% = +++)”. Then “347 (SLFKHDPAAWEA; listed as Homo sapiens) [compound 347]”, with “″++++″ (≥75% = ++++)”.

Regarding “348 (ILLDVKTRL; listed as Homo sapiens) [compound 348]”, the Peptide exchange entry is reported as “″++++″ (≥75% = ++++)”. For the substance “349 (SLTEYLQNV; listed as Homo sapiens) [compound 349]”, the Peptide exchange result is listed as “″++++″ (≥75% = ++++)”. With “350 (ALLDVTHSELTV; listed as Homo sapiens) [compound 350]”, the Peptide exchange entry is given as “″+++″ (≥50% = +++)”. Regarding “351 (SLIPNLRNV; listed as Homo sapiens) [compound 351]”, the Peptide exchange entry was “″+++″ (≥50% = +++)”.

With “352 (SLLELLHIYV; listed as Homo sapiens) [compound 352]”, the Peptide exchange entry was “″+++″ (≥50% = +++)”.

As to “353 (YLFEMDSSL; listed as Homo sapiens) [compound 353]”, the Peptide exchange entry was “″++″ (≥20% = ++)”. Then “354 (LILEGVDTV; listed as Homo sapiens) [compound 354]”, with “″++″ (≥20% = ++)”. On to “355 (SIQQSIERLLV; listed as Homo sapiens) [compound 355]”, for which the Peptide exchange entry is “″++″ (≥20% = ++)”.

Regarding “356 (KLLGKLPEL; listed as Homo sapiens) [compound 356]”, the Peptide exchange entry is “″+++″ (≥50% = +++)”. Then “357 (SMHDLVLQV; listed as Homo sapiens) [compound 357]”, with “″+++″ (≥50% = +++)”.

Turning to “358 (ALDEYTSEL; listed as Homo sapiens) [compound 358]”, the Peptide exchange entry is on record as “″++++″ (≥75% = ++++)”. With “359 (YLLPESVDL; listed as Homo sapiens) [compound 359]”, the Peptide exchange result is reported as “″+++″ (≥50% = +++)”. Then “361 (ALYELEGTTV; listed as Homo sapiens) [compound 361]”, with “″+++″ (≥50% = +++)”; and “362 (TLYGLSVLL; listed as Homo sapiens) [compound 362]”, with “″+++″ (≥50% = +++)”. Then “363 (KVLDVSDLESV; listed as Homo sapiens) [compound 363]”, with “″++″ (≥20% = ++)”; and “364 (LLQNEQFEL; listed as Homo sapiens) [compound 364]”, with “″+++″ (≥50% = +++)”.

As to “365 (YVIDQGETDVYV; listed as Homo sapiens) [compound 365]”, the Peptide exchange entry was “″+++″ (≥50% = +++)”. Then “366 (RLLDMGETDLML; listed as Homo sapiens) [compound 366]”, with “″+++″ (≥50% = +++)”; and “367 (SLQNHNHQL; listed as Homo sapiens) [compound 367]”, with “″+++″ (≥50% = +++)”. Then “369 (GLFPEHLIDV; listed as Homo sapiens) [compound 369]”, with “″+++″ (≥50% = +++)”; and “370 (SLLQDLVSV; listed as Homo sapiens) [compound 370]”, with “″+++″ (≥50% = +++)”; and “371 (FLQAHLHTA; listed as Homo sapiens) [compound 371]”, with “″++++″ (≥75% = ++++)”. As for “372 (TMLLNIPLV; listed as Homo sapiens) [compound 372]”, the Peptide exchange result was “″++″ (≥20% = ++)”. For the substance “373 (SLLEDKGLAEV; listed as Homo sapiens) [compound 373]”, the Peptide exchange result is “″++″ (≥20% = ++)”. On to “374 (FLLQQHLISA; listed as Homo sapiens) [compound 374]”, for which the Peptide exchange result is given as “″++″ (≥20% = ++)”.

The values are drawn from patent US10472401B2, “Peptides and combination of peptides for use in immunotherapy against ovarian cancer and other cancers” (immatics biotechnologies GmbH, priority 2015, dated 2019).
